pKd: −log10 of the molar value.

Series [1] deals with APP transgenic mice's brains. As to the kind of experiment: In vivo near-infrared imaging of APP transgenic mouse after intravenous injection. The settings on record: 13 mg/kg intravenous injection.
Method: (§1) Optical in vivo imaging study was performed on IVIS imaging system, an optical imaging system from Caliper Life Sciences for imaging living body with an excitation filter set as Cy5.5, and emission spectrum band-pass filter as 640 nm. Before imaging, the mice were anaesthetized with a mixture gas of isoflurane and oxygen, and placed on an imaging plate with its face downward. White light photography (exposure time: 0.2 s) and near-infrared fluorescent imaging (exposure time: 5 s) were performed under the same field of vision (FOV) (FOV=12.5 cm, f/stop=1, Bin=1) at time points including before injection and several selected time points after intravenous injection. Each mouse received an injection dose of 13 mg/kg. White light photographs and near-infrared fluorescent images were superimposed to determine the size of intracranial portion. Finally, the imaging views were processed by using Living Image Software (Caliper Life Sciences).
The target of another series is Aβ1-42 aggregates (Homo sapiens, UniProt P05067). As to the kind of experiment: biochemical.
Series [2] deals with amyloid deposits in APP transgenic mouse brain. As to the kind of experiment: Fluorescent microscopy of APP transgenic mouse's brain sections after intravenous injection of the Cy5.5 conjugate. The format is in vivo. The settings on record: 13 mg/kg intravenous, brain removed after 30 minutes.
Method: 30 minutes after intravenous administration (13 mg/kg), the mice were sacrificed, and then their brains were removed and frozen in liquid nitrogen. […] The brain was cut into sections of about 25 m in thickness using a frozen tissue microtome (Lecia CM1950). The sections were then placed on a fluorescent microscope (IX8, OLYMPUS) for observation and photography.
The test system of series [3] is APP transgenic mice's brains. The settings on record: mouse, in vivo.
Method: as §1

amyloid deposits in APP transgenic mouse brain, sequence (P05067 672-711 limits assumed): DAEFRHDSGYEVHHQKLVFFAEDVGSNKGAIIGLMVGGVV
Aβ1-42 aggregates, sequence (P05067 672-713 limits assumed): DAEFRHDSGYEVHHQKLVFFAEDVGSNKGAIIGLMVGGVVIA
Method for Aβ1-42 aggregates: Dissolving Aβ1-42 solid in PBS (PH 7.4) at a concentration of 0.25 mg/ml (55.38 uM), incubating in 37° C. water bath on a shaker for 42 h.
Preparing solutions (containing 10% DMF), containing the conjugate formed by angiopep-2 and FITC (10 uM) as well as Aβ1-42 aggregates (0, 5, 10 uM) or BSA (45 ug/mL), respectively; incubating the mixture solution at 37° C. for 30 minutes.
Preparing solutions (containing 10% DMF), containing the conjugate formed by angiopep-2 and FITC (0-3.75 uM) as well as Aβ1-42 aggregates (2.2 uM) or BSA (10 uM), respectively, incubating the mixture solution at 37° C. for 30 minutes.
Detecting the mixture solutions prepared above for their emission spectrum with fluorescence spectrophotometer, emission wavelength: 333 nm, maximum emission wavelength: 531 nm, in the range of 500-600 nm.
Plotting by using GraphPad Prism 5.0 (GraphPad Software, Inc., La Jolla, Calif., USA) and calculating equilibrium dissociation constant.

Turning to `C[C@@H](O)[C@H](NC(=O)CCCCCNC(=S)Nc1ccc2c(c1)C(=O)OC21c2ccc(O)cc2Oc2cc(O)ccc21)C(=O)N[C@@H](Cc1ccccc1)C(=O)N[C@@H](Cc1ccccc1)C(=O)N[C@@H](Cc1ccc(O)cc1)C(=O)NCC(=O)NCC(=O)N[C@@H](CO)C(=O)N[C@@H](CCCNC(=N)N)C(=O)NCC(=O)N[C@@H](CCCCN)C(=O)N[C@@H](CCCNC(=N)N)C(=O)N[C@@H](CC(N)=O)C(=O)N[C@@H](CC(N)=O)C(=O)N[C@@H](Cc1ccccc1)C(=O)N[C@@H](CCCCN)C(=O)N[C@H](C(=O)N[C@@H](CCC(=O)O)C(=O)N[C@@H](CCC(=O)O)C(=O)N[C@@H](Cc1ccc(O)cc1)C(=O)O)[C@@H](C)O` [conjugate formed by angiopep-2 and FITC], the “passing through BBB and aggregation in brain in vivo” value in series [1] (APP transgenic mice) is “can pass through BBB and aggregate in APP transgenic mice's brains in vivo”. Besides, the pKd on Aβ1-42 aggregates was 6.17.

Regarding “conjugate formed by angiopep-2 and Cy5.5: angiopep-2 (TFFYGGSRGKRNNFKTEEY) linked N-terminally via Acp to Cy5.5; near-infrared imaging conjugate, MW 2880.24 Da”, the “labeling of amyloid deposits in brain in vivo” value in series [2] is “can bind to and label the amyloid deposits”. For the same compound, in series [1] (APP mice), the “aggregation in brain (near-infrared imaging)” value is “aggregated in APP mice's brains”. For the same compound, in series [3], the “time after which cleared from brain” value was determined as 20 h.

Values taken from US10258699B2, “Angiopep and derivatives thereof for imaging amyloids” (University Of Science And Technology Of China, priority 2014, dated 2019).
